The values that follow come from PMC5159797.

B1: GST-SKAP [not stated] / GFP-Kif2b [human] (parent)
chain 1: MAAPEAPPLDRVFRTTWLSTECDSHPLPPSYRKFLFETQAADLAGGTTVAAGNLLNESEKDCGQDRRAPGVQPCRLVTMTSVVKTVYSLQPPSALSGGQPADTQTRATSKSLLPVRSKEVDVSKQLHSGGPENDVTKITKLRRENGQMKATDTATRRNVRKGYKPLSKQKSEEELKDKNQLLEAVNKQLHQKLTETQGELKDLTQKVELLEKFRDNCLAILESKGLDPALGSETLASRQESTTDHMDSMLLLETLQEELKLFNETAKKQMEELQALKVKLEMKEERVRFLEQQTLCNNQVNDLTTALKEMEQLLEM
chain 2: MASQFCLPESPCLSPLKPLKPHFGDIQEGIYVAIQRSDKRIHLAVVTEINRENYWVTVEWVEKAVKKGKKIDLETILLLNPALDSAEHPMPPPPLSPLALAPSSAIRDQRTATKWVAMIPQKNQTASGDSLDVRVPSKPCLMKQKKSPCLWEIQKLQEQREKRRRLQQEIRARRALDVNTRNPNYEIMHMIEEYRRHLDSSKISVLEPPQEHRICVCVRKRPLNQRETTLKDLDIITVPSDNVVMVHESKQKVDLTRYLQNQTFCFDHAFDDKASNELVYQFTAQPLVESIFRKGMATCFAYGQTGSGKTYTMGGDFSGTAQDCSKGIYALVAQDVFLLLRNSTYEKLDLKVYGTFFEIYGGKVYDLLNWKKKLQVLEDGNQQIQVVGLQEKEVCCVEEVLNLVEIGNSCRTSRQTPVNAHSSRSHAVFQIILKSGRIMHGKFSLVDLAGNERGADTTKASRKRQLEGAEINKSLLALKECILALGQNKPHTPFRASKLTLVLRDSFIGQNSSTCMIATISPGMTSCENTLNTLRYANRVKKLNVDVRPYHRGHYPIGHEAPRMLKSHIGNSEMSLQRDEFIKIPYVQSEEQKEIEEVETLPTLLGKDTTISGKGSSQWLENIQERAGGVHHDIDFCIARSLSILEQKIDALTEIQKKLKLLLADLHVKSKVE

Variants of B1 are the subject of the assay. Kind of assay: GST pull-down, anti-GFP blot quantified. As to conditions: with GFP-Kif2b [human]; GFP-Kif2b from HEK293T cell lysates; parent: 1; read off a plot.
In the case of chain 1 S232E S237E T294E, the ratio to parent amounted to 1.2.
Next, chain 1 S232A S237A T294A: 0.7.
